pKd: −log10 of the molar value.

We go through one substance from paper doi:10.1101/2025.08.05.667158.

The target of experiment [1] is human IR-A ECD construct (residues 1-917) (human). The experiment in a line: cryo-EM structure.
For experiment [2], the target named is IR-A in cell membranes of human IM-9 lymphocytes (human (endogenous in IM-9)) (UniProt P06213). Nature of the experiment: radioligand binding.

As usually defined, the pKd is the negative decadic logarithm of the Kd, by convention in mol/L. Read a low pKd as a large Kd. Take S661 peptide: the stoichiometry N (per IR-ECD dimer) in experiment [1] worked out at 2. Besides, the pKd in experiment [2] is 8.59.
